Data: US20240247072A1 (KEYMED BIOSCIENCES, published 2024)

How the values were obtained:
[1] = target: T1, human CD70, full length, on CHO cells (CHO-human CD70-B07) (human, UniProt P32970 1-193); experiment: flow cytometry, Fab on CHO-human CD70 cells
T1 construct: whole, on cells; Stably transfected CHO cells; also called CHO-CD70
T1 sequence (looked up): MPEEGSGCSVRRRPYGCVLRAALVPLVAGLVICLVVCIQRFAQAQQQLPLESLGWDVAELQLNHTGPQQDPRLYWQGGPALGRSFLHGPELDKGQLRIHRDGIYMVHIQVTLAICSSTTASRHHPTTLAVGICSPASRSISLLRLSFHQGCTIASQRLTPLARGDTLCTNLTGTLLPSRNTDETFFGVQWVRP
Experimental: The blank control cell CHO and stably-transfected cell line CHO-CD70 were prepared and added at 5×10⁴ cells/well into a 96-well plate respectively. 50 μL of Fab antibodies with different dilution gradients were added into each well and incubated at 4° C. for 60 minutes. The centrifuge was performed to discard the supernatant. The plate was washed with 0.5% BSA/PBS and added with 50 μL of a secondary antibody solution (Anti-human IgG F (ab′) 2-AF647, Jackson Immuno Research) and incubated at 4° C. for 45 minutes. The excess secondary antibody was washed off with 0.5% BSA. The PBS solution was added to resuspend cells for flow cytometry. The data was collected.

[2] = target: T2, recombinant trimeric protein of human CD70 extracellular region (human CD70 mIgG Fc (knob) / mouse IgG Fc … (human, UniProt P01863 98-330 = IgG part)); experiment: BLI (Octet), biotin antigen on SA probe, Fab in solution
T2 construct: The ELISA and Octet texts say only 'recombinant CD70 protein' / 'CM352 antigen'; also called recombinant human CD70 protein; recombinant CD70 protein
T2 chain 1: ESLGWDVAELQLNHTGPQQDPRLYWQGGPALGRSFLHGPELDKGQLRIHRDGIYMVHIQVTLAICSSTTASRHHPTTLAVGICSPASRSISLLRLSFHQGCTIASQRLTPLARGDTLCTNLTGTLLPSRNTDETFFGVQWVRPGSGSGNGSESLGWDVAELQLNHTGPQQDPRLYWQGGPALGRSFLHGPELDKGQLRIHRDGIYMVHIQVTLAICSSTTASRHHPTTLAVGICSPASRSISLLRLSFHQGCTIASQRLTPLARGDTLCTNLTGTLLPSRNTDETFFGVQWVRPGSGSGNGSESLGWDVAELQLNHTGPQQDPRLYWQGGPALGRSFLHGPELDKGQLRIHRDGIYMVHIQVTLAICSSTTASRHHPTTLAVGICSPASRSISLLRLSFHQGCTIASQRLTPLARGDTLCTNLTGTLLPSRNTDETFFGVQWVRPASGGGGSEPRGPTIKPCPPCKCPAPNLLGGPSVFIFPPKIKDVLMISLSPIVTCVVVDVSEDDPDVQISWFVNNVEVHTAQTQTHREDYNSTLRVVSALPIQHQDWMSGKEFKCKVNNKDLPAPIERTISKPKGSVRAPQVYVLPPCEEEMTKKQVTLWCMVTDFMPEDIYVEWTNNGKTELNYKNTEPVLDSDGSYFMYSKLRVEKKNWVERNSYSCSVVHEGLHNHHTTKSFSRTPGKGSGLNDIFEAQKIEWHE
T2 chain 2: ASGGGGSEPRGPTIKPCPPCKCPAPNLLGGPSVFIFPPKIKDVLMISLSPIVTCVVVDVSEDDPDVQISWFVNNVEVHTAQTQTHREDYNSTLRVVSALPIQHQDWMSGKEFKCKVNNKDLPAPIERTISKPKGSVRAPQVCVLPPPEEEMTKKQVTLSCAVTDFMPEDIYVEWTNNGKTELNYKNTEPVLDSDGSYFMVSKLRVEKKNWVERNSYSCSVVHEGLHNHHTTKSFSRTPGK

[3] = target: T2, recombinant trimeric protein of human …; experiment: competition ELISA, Fab titrated, human CD27 coated, biotin-CD70
Experimental: The next day, the plate was washed 3 times with PBS, added with 200 μL of 2% defatted dry milk/PBS, blocked at room temperature for 2 hours, and washed once with PBS, 50 μL of different dilution gradients of Fab antibodies were added and incubated at room temperature for 30 minutes. […] The plate was washed 3 times with PBST and PBS and dried by spinning. A secondary antibody solution Streptavidin-coupled horseradish peroxidase SA-HRP (BD bioscience, Cat. No: 6222697) was diluted with 0.5% BSA in a ratio of 1:8000. 100 μl of the diluent was added into each well and incubate at room temperature for 30 minutes. The plate was washed 3 times with PBST and PBS and dried by spinning. 100 μl of the color development solution (TMB solution, Sigma, Cat. No: T2885) was added into each well and protected from light at 37° C. for reaction. After the substrate developed moderately, 50 μl of 2M concentrated sulfuric acid solution was added into each well to terminate the reaction. The OD450 nm was determined by using an enzyme-linked detector within 30 minutes, and the data was collected.

[4] = target: T1, human CD70, full length, on CHO cells …; experiment: flow cytometry, chimeric IgG on CHO-human CD70 cells
Experimental: Different cells in logarithmic growth phase were taken, blocked with 3% BSA for 30 minutes, and plated to a 96-well U-plate at 5×10⁴ cells/100 μL. The centrifuge was performed at 1100 rpm for 3 minutes. The supernatant was discarded and the cells were gently tapped to be loosening. 50 μL of gradient diluted antibody was added (antibody concentration: from 30 μg/mL, 3-fold dilution for 5 gradients) per well, and incubated at 4° C. for 1 hour. After incubation, 180 μL of 0.5% BSA was added to each well for washing 3 times. 30 μL/well of secondary antibody AlexaFluro647 anti-human IgG (Jackson Immuno Research, Cat. No: 109-606-170) was added and incubated at 4° C. for 45 minutes. At the end of the incubation, each well was washed 3 times with 180 μL of 0.5% BSA and finally resuspended in 50 μL of PBS for iQue (Intellicyt, USA) assay.

[5] = target: T2, recombinant trimeric protein of human …; experiment: competition ELISA, chimeric IgG titrated, CD27 coated, biotin-CD70, human pair
Experimental: The recombinant CD27 protein was coated at 1 μg/mL in a 96-well microtiter plate and incubated overnight at 4° C. The next day, the plate was washed 3 times with PBS, added with 200 μL of 2% defatted dry milk/PBS, blocked at room temperature for 2 hours, and washed once with PBS. The purified chimeric antibody was divided to 12 concentration gradients starting at 100 nM and diluted in a 1:3 gradient. […] of the antibody was added per well and incubated at room temperature for 30 minutes. […] The plate was washed 3 times with PBST and PBS and dried by spinning. A secondary antibody Streptavidin-coupled horseradish peroxidase SA-HRP (BD bioscience, cat. No: 6222697) was diluted with 0.5% BSA in a ratio of 1:8000. 100 μL of the diluent was added into each well and incubated at room temperature for 30 minutes. The plate was washed 3 times with PBST and PBS and dried by spinning. 100 μl of color development solution (TMB solution, Sigma, Cat. No: T2885) was added into each well and protected from light at 37° C. for reaction. After the substrate developed moderately, 50 μl of H₂SO₄ was added into each well to terminate the reaction. The OD450 nm was determined by using an enzyme-linked detector within 30 minutes, and the data was collected. The results were calculated by using Graph Pad Prism 5 software.

| Binder | EC50 [1] [nM] | koff [2] [s⁻¹] | IC50 [3] [nM] | EC50 [4] [nM] | IC50 [5] [nM] |
| --- | --- | --- | --- | --- | --- |
| 2B12 Fab antibody (Fab, V domains shown, Purified Fab from the mouse Fab phage display library) VH: QVQLQQSGPGLVQPSQSLSITCTVSGFSLTTYAVHWVRQSPGKGLEWLGVIWSTGITDYNAAFISRLSISKDNSKSQVFFKMNSLQSDDIAIYYCARNPYYGNLNAMDYWGQGTSVTVSS VL: DIVLTQSPASLAVSLGQRATISCRASKSVDTSGYSFMHWYQQKPGQPPKLLIYLASNLESGVPARFSGSGSGTDFTLNIHPVEEEDAATYYCQHSRELPLTFGAGTKLELK | 8.6 | 0.000125 | 0.29 | – | – |
| 14C12 Fab antibody (Fab, V domains shown, Purified Fab from the mouse Fab phage display library) VH: EVQLQQSGPELVKPGASVKMSCKASGYTFTDYVIHWVKQKPGQGLEWIGYLHPYNDDTKYNEKFKGKATLTSDKSSSTAYMELSSLTSEDSAVYYCARRGYYDYAWFADWGQGTLVTVSA VL: DIVLTQSPASLAVSLGQRATISCRASKSVSASGYTWIHWYQQKPRQAPKLLIYLASNLESGVPARFSGSGSGTDFTLNIHPVEEEDAATYYCQHSRELPPTFGGGTKLEIK | 28 | 0.000321 | 0.79 | – | – |
| 23A11 chimeric antibody (antibody, V domains shown) VH: QVQLQQSGPGLVQPSQSLSITCTVSGFSLTTYAVHWVRQSPGKGLEWLGVIWSVGSTDYNAAFISRLSISKDNSKSQVFFKMNSLQADDTAIYYCARNIYYGNVYAMDYWGQGTSVTVSS VL: DIVLTQSPASLAVSLGQRATISCRASKSVDASGYSFMHWYQQKAGQPPKLLIYLASNLESGVPARFSGRGSGTDFTLNIHPVEEGDAATYYCQHSRELPLTFGAGTKLEIK | – | – | – | 11.9 | 0.07 |
| 12A1 Fab antibody (Fab, V domains shown, Purified Fab from the mouse Fab phage display library) VH: QVQLQQSGPGLVQPSQSLSITCTVSGFSLTTYAVHWVRQSPGKGLEWLGVIWSTGITDYNAAFISRLSISKDNSKSQVFFKMDSLQSDDTAIYFCARNPHYGNLNAMDYWGQGTSVTVSS VL: DIVLTQSPASLAVSLGQRATISCRASKSVSASGYTWMHWYQQKPGQAPKLLIYLASNLESGVPARFSGSGSGTDFTLNIHPVEEEDAATYYCQHSRELPPTFGGGTKLEIK | 17.7 | 0.000317 | 1.88 | – | – |
| 12A1 chimeric antibody (antibody, V domains shown) VH: QVQLQQSGPGLVQPSQSLSITCTVSGFSLTTYAVHWVRQSPGKGLEWLGVIWSTGITDYNAAFISRLSISKDNSKSQVFFKMDSLQSDDTAIYFCARNPHYGNLNAMDYWGQGTSVTVSS VL: DIVLTQSPASLAVSLGQRATISCRASKSVSASGYTWMHWYQQKPGQAPKLLIYLASNLESGVPARFSGSGSGTDFTLNIHPVEEEDAATYYCQHSRELPPTFGGGTKLEIK | – | – | – | 7.55 | 0.12 |
| 23A11 Fab antibody (Fab, V domains shown, Purified Fab from the mouse Fab phage display library) VH: QVQLQQSGPGLVQPSQSLSITCTVSGFSLTTYAVHWVRQSPGKGLEWLGVIWSVGSTDYNAAFISRLSISKDNSKSQVFFKMNSLQADDTAIYYCARNIYYGNVYAMDYWGQGTSVTVSS VL: DIVLTQSPASLAVSLGQRATISCRASKSVDASGYSFMHWYQQKAGQPPKLLIYLASNLESGVPARFSGRGSGTDFTLNIHPVEEGDAATYYCQHSRELPLTFGAGTKLEIK | 15.6 | 0.000403 | 0.5 | – | – |
| 27A3 Fab antibody (Fab, V domains shown, Purified Fab from the mouse Fab phage display library) VH: EVQLQESGPGLVQPSQSLSITCTVSGFSLTTYAVHWVRQSPGKGLEWLGVIWSTGITDYNADFISRLSISKDNSKSQVFFKMDSLQSDDTAIYFCARNHYYGNLNAMDYWGQGTSVTVSS VL: DIVLTQSPASLAVSLGQRATISCRASKSVSTSGYSFMHWYQQKPGQPPKLLIYLASNLESGVPARFSGSGSGTDFTLNIHPVEEEDAATYYCQHSRELPYTFGGGTKLEIK | 12.4 | 0.000172 | 0.51 | – | – |
| 32D1 Fab antibody (Fab, V domains shown, Purified Fab from the mouse Fab phage display library) VH: EVQLQQSGPELVKPGASLKMSCKASGYTFTDYVIHWVKQKPGQGLEWIGYLHPYNDDTKYNEKFKGKATLTSDKSSSTAYMELNSLTSEDSAVYYCARRGYYDYAWFADWGQGTLVTVSA VL: DIVLTQSPASLAVSLGQRATISCKASKSVSASGYTWMHWYQQKPGQAPKLLIYLASNLESGVPARFSGSGSGTDFTLNIHPVEEEDAATYYCQHSRELPPTFGGGTKLEIK | 8.1 | 0.00183 | 2.26 | – | – |
| 3B2 Fab antibody (Fab, V domains shown, Purified Fab from the mouse Fab phage display library) VH: EVQLKQSGPGLVQPSQSLSITCTVSGFSLTTYGVHWVRQSPGKGLEWLGVIWSTGITDYNAAFISRLSISKDNSKSQVFFKMNSLQADDTAIYYCARNSYYGNLYVMDYWGQGTSVTVSS VL: DIVLTQSPASLAVSLGQRATISCRASKSVSASGYNFMHWYQQKPGQPPKLLIYLASNLESGVPARFSGSGSGTDFTLNIHPVEEEDAATYYCQHSRELPLTFGAGTKLELK | 14.2 | 0.000325 | 0.32 | – | – |
